This note sets out measurements from doi:10.1101/2025.07.24.665437, “Consensus DNA Inhibits p53 Aggregation but Fails to Rescue Mutants”.

The target of this data set is p53 DBD WT (UniProt P04637 94-312). Description: EMSA; protein:DNA 1:1, 9:1, 454:1; binding kept 24 h to 1 month; EMSA on TBE gels; protein in 1X PBS, 1 mM TCEP, pH 7.4; DNA stocks in 50 mM Tris-HCl, 137 mM NaCl, pH 8.1; samples held at 4 C (0 hr) or incubated (37 C, 24 h for aggregation); full EMSA details not in material. To be noted: protein: recombinant; tags: 6xHis-TEV (N-terminal); blunt. (In general: A gel shift assay detects complexes by their altered migration in electrophoresis.)
Chain of p53 DBD WT (P04637 94-312): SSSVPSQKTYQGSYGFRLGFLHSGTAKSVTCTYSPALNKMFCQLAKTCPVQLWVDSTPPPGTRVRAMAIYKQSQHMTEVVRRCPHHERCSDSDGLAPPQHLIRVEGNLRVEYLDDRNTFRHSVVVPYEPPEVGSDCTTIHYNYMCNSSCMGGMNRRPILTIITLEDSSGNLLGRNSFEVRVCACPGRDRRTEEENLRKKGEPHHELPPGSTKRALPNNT

B1: p21-RE (dsDNA)
DNA 1: CGCGAACATGTCCCAACATGTTGCGC
DNA 2: GCGCAACATGTTGGGACATGTTCGCG
As for B1, the binding result is “binds”.
